Measurements: US20220009986A1 (AMBRX, published 2022)
“And” between values parts separate entries of the source, which are not always exact repeats. Equal entries are not always repeated. Where two headings read alike, the source gives them in different places. Each block holds one binder with its values, some of them ahead of it.

Key:
Assay in all cases: cell-based or functional assay
[1] = target: T1, endogenous IL-10 receptors of MC/9 cells (mouse mast cell line) (mouse, UniProt Q61727 17-575)
T1 sequence (looked up): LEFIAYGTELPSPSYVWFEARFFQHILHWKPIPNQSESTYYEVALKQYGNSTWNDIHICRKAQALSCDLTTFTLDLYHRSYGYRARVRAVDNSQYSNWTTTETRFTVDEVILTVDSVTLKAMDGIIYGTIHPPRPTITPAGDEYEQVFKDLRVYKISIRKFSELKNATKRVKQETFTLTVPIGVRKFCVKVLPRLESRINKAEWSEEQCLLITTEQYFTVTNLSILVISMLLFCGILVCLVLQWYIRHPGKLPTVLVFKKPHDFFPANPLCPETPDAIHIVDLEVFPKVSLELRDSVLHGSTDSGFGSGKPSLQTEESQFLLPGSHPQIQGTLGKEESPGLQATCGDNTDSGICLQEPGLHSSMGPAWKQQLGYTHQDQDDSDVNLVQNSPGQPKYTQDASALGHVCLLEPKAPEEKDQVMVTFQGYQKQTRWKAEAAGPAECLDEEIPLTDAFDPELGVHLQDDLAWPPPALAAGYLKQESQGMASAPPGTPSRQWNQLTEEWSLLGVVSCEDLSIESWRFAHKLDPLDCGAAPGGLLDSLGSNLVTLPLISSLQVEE

[2] = target: T1, endogenous IL-10 receptors of MC/9 …; remark: listed apart in the source
[3] = target: T1, endogenous IL-10 receptors of MC/9 …; remark: listed apart in the source
[4] = target: T1, endogenous IL-10 receptors of MC/9 …; remark: listed apart in the source

EC50 (ng/ml), MC/9 proliferation assay [1]: 0.303 ng/mL and 0.105 ng/mL
EC50 (ng/ml), MC/9 proliferation assay [2]: 0.42 ng/mL
EC50 (ng/ml), MC/9 proliferation assay [3]: 0.14 ng/mL
EC50 (ng/ml), MC/9 proliferation assay [4]: 1 ng/mL
B1: IL-10 wild type (mature wild type human IL-10) (ligand)
chain: SPGQGTQSENSCTHFPGNLPNMLRDLRDAFSRVKTFFQMKDQLDNLLLKESLLEDFKGYLGCQALSEMIQFYLEEVMPQAENQDPDIKAHVNSLGENLKTLRLRLRRCHRFLPCENKSKAVEQVKNAFNKLQEKGIYKAMSEFDIFINYIEAYMTMKIRN

EC50 (ng/ml), MC/9 proliferation assay [3]: 21.8 ng/mL
B2: 10K PEG-hIL-10 wt (ligand)
chain: B1 chain
modifications: N-terminal PEGylation with 10K PEG

EC50 (ng/ml), MC/9 proliferation assay [3]: 4.76 ng/mL
B3: 5K PEG-hIL-10 wt (ligand)
chain: B1 chain
modifications: N-terminal PEGylation with 5K PEG
